According to patent US20090142377A1:

Tests used:
[1] = target: cdH5-0 (supernatant of dH5-0 after 10 minutes centrifugation at 16,000-18,000*g) (influenza A virus H5N1 strain A/Vietnam/1203/04); experiment: ELISA, coated H5 form; scaled
[2] = target: dH5-I (cdH5-0 heat-cycled at pH 7) (influenza A virus H5N1 strain A/Vietnam/1203/04) (UniProt Q8QPL1); experiment: ELISA, coated H5 form; scaled
[3] = target: dH5-II (cdH5-0 heat-cycled at pH 2, back to pH 7) (influenza A virus H5N1 strain A/Vietnam/1203/04) (UniProt Q8QPL1); experiment: ELISA, coated H5 form; scaled
[4] = target: dH5-III (cdH5-0 incubated about 16 h at 47.5 C) (influenza A virus H5N1 strain A/Vietnam/1203/04) (UniProt Q8QPL1); experiment: ELISA, coated H5 form; scaled
[5] = target: fdH5-0 (ultrafiltrated dH5-0: flow-through of cdH5-0 through a 1,000 kDa cut-off filter) (influenza A virus H5N1 strain A/Vietnam/1203/04); experiment: ELISA, coated H5 form; scaled
[6] = target: cross-beta nOVA: ovalbumin (chicken egg-white albumin) dissolved at 1 mg/ml in PBS (chicken) (UniProt P01012); experiment: ELISA, immobilized OVA; normalized to nOVA
[7] = target: cdH5-0 (supernatant of dH5-0 after 10 minutes centrifugation at 16,000-18,000*g) (influenza A virus H5N1 strain A/Vietnam/1203/04); experiment: ELISA, immobilized H5; normalized to cdH5-0
[8] = target: dH5-I (cdH5-0 heat-cycled at pH 7) (influenza A virus H5N1 strain A/Vietnam/1203/04) (UniProt Q8QPL1); experiment: ELISA, immobilized H5; normalized to cdH5-0
[9] = target: fdH5-0 (ultrafiltrated dH5-0: flow-through of cdH5-0 through a 1,000 kDa cut-off filter) (influenza A virus H5N1 strain A/Vietnam/1203/04); experiment: ELISA, immobilized H5; normalized to cdH5-0
[10] = target: cross-beta nOVA: ovalbumin (chicken egg-white albumin) dissolved at 1 mg/ml in PBS (chicken) (UniProt P01012); experiment: ELISA, immobilized OVA form
[11] = target: dOVA-1: ovalbumin 5.2 mg/ml in HBS, acidified with HCl, 40 minutes at 37 C, neutralized (chicken) (UniProt P01012); experiment: ELISA, immobilized OVA form
[12] = target: dOVA-2: ovalbumin 1 mg/ml in PBS, five heat cycles 30 to 85 C (chicken) (UniProt P01012); experiment: ELISA, immobilized OVA form
[13] = target: dOVA-3: ovalbumin 1 mg/ml in PBS, about 16 h at 75 C (chicken) (UniProt P01012); experiment: ELISA, immobilized OVA form
[14] = target: non-treated H5 (nH5) of H5N1 strain A/Vietnam/1203/04 (Protein Sciences) (influenza A virus H5N1 strain A/Vietnam/1203/04); experiment: ELISA, coated nH5, antibody 1:2000
[15] = target: cdH5-0 (supernatant of dH5-0 after 10 minutes centrifugation at 16,000-18,000*g) (influenza A virus H5N1 strain A/Vietnam/1203/04); experiment: ELISA, coated H5 form, tPA series with excess e-amino caproic acid
[16] = target: fdH5-0 (ultrafiltrated dH5-0: flow-through of cdH5-0 through a 1,000 kDa cut-off filter) (influenza A virus H5N1 strain A/Vietnam/1203/04); experiment: as above

Substance | relative affinity kD [1] | relative affinity kD [2] | relative affinity kD [3] | relative affinity kD [4] | relative affinity kD [5] | relative affinity kD [11] | also measured
Rockland anti-H5 A/VN/1203/04 mouse monoclonal antibody, catalogue number 200-301-977 | 100 a.u. | 0 a.u. | 0 a.u. | 35 a.u. | 93 a.u. | – | –
HyTest IgG2a clone 15A6, mouse monoclonal anti-H5 antibody | 100 a.u. | 105 a.u. | 31 a.u. | 76 a.u. | 204 a.u. | – | –
fourth and fifth finger domain of fibronectin (Fn F4-5), with C-terminal FLAG-tag (from UniProt P02751 183-275) | – | – | – | – | – | – | Normalized affinity, kD (%) [6]: 100%; Normalized affinity, kD (%) [7]: 100%; Normalized affinity, kD (%) [8]: 0%; Normalized affinity, kD (%) [9]: 69%
mouse HYB 099-02 (IgG1) anti-OVA monoclonal antibody | – | – | – | – | – | 154 a.u. | relative affinity kD [10]: 103 a.u.; relative affinity kD [12]: 118 a.u.; relative affinity kD [13]: 154 a.u.
mouse HYB 099-09 (IgG1) anti-OVA monoclonal antibody | – | – | – | – | – | 127 a.u. | relative affinity kD [10]: 71.2 a.u.; relative affinity kD [12]: 85.1 a.u.; relative affinity kD [13]: 164 a.u.
Rockland anti-H5 A/VN/1203/04 mouse monoclonal antibody, catalogue number 200-301-976 | 100 a.u. | 0 a.u. | 132 a.u. | 127 a.u. | 105 a.u. | – | –
Rockland anti-H5 A/VN/1203/04 mouse monoclonal antibody, catalogue number 200-301-978 | 100 a.u. | 115 a.u. | 31 a.u. | 112 a.u. | 107 a.u. | – | –
mouse HYB 099-01 (IgG1) anti-OVA monoclonal antibody | – | – | – | – | – | 115 a.u. | relative affinity kD [10]: 98.5 a.u.; relative affinity kD [12]: 129 a.u.; relative affinity kD [13]: 80.9 a.u.
HyTest clone 17C8, mouse monoclonal anti-H5 antibody | 100 a.u. | 51 a.u. | 34 a.u. | 68 a.u. | 128 a.u. | – | –
Rockland anti-H5 A/VN/1203/04 mouse monoclonal antibody, catalogue number 200-301-979 | 100 a.u. | 125 a.u. | 83 a.u. | 126 a.u. | 97 a.u. | – | –
Sigma C6534 anti-OVA antibody | – | – | – | – | – | 44 a.u. | relative affinity kD [10]: 84.9 a.u.; relative affinity kD [12]: 221 a.u.; relative affinity kD [13]: 287 a.u.
HyTest IgG2a clone 8D2, mouse monoclonal anti-H5 antibody | 100 a.u. | 34 a.u. | 36 a.u. | 72 a.u. | 125 a.u. | – | –
Rockland anti-H5 A/VN/1203/04 mouse monoclonal antibody, catalogue number 200-301-975 | 100 a.u. | 47 a.u. | 79 a.u. | 78 a.u. | 103 a.u. | – | ELISA signal [14]: 1.5
tissue type plasminogen activator (tPA; Actilyse, Boehringer-Ingelheim) (from UniProt P00750 36-562) (enzyme) | – | – | – | – | – | – | Bmax [15]: 0.36; Bmax [16]: 0.37
monoclonal anti-OVA IgG (A6075, Sigma) (antibody) | – | – | – | – | – | 20.8 a.u. | –
